# The supplement of paper PMC10567573
# ± gives the standard deviation.
# Assay: protein stability index of a GFP-peptide fusion (GPS, HEK-293T) (PSI 1-6); higher = more stable
# Settings: c terminus: a fixed tail appended
# 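Note: 24-mer peptide tiles fused after GFP, lentivirally expressed, FACS-sorted into six equal bins by GFP/DsRed ratio, decoded by Illumina sequencing, PSI is the read-weighted mean bin number.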
Sequence,protein stability index (treatment: DMSO),"protein stability index (treatment: MLN4924 1 uM, 8 h)"
TGECKELEKKNEALKERADSLAKE [ATF4],5.54 ± 0.3,5.59 ± 0.18
TGLNNGRIKIWDVYTGKLLLNLVD [WSB1],2.54 ± 1.3,2.25 ± 0.61
TGRFSFTLPYPVKIKVRFSFFLQI [HACD3],3.14 ± 0.37,2.92 ± 0.17
THACREYLKNLPLLSKYCGYREDN [TPH1],2.22 ± 0.26,2.18 ± 0.41
TKGEKIMLAIITKMTLTQVSTWFA [IRX6],2.97 ± 0.5,2.95 ± 0.68
TKLEAEIVTLRHVLAAKERRCGEL [TPD52L3],2.89 ± 0.22,2.78 ± 0.35
TLAQTISEAAIGGAMLGQTTSEEA [HDAC6],4.66 ± 0.32,4.78 ± 0.28
TLNQLQSLQNSLECAMETTEEQTR [NECAB1],4.94 ± 0.13,4.97 ± 0.28
TNTHPPASLPSQKYPGPQAEGDSE [CHGA],5.43 ± 0.2,5.57 ± 0.13
TPEEQGELEPLKGNFDWEAIFDAG [FOXJ1],5.29 ± 0.28,5.41 ± 0.088
TPHTPKSLLSKARGIDSSSVKLRG [WEE1],4.26 ± 0.54,4.08 ± 0.28
TPLHLDLTQLHRLSLESSPDAPDH [PLEKHN1],4.59 ± 0.29,4.63 ± 0.23
TPPPSPNTQTPVQPPPPPPPPPMQ [CCDC6],5.12 ± 0.084,5.26 ± 0.25
TPSQEHLKHQTVYRLLKCAPRGKN [FEM1A],3.61 ± 0.15,3.62 ± 0.12
TPTSLSSLSNAVANTMEHLSLLDN [FBXO33],4.44 ± 0.065,4.44 ± 0.21
TQKLSKIETLRLAKNYIWALSEIL [NEUROD6],2.61 ± 0.49,2.67 ± 0.47
TRHVFTCGRRGIKVWSLTGQVAED [TLE6],2.62 ± 0.14,2.68 ± 0.25
TRPKKMGSQLPKPRMLRESGHGDA [FATE1],4.53 ± 0.19,4.53 ± 0.22
TRTAEPAESSVPPVTSIGIDNLGL [SLC35F2],4.48 ± 0.27,4.49 ± 0.11
TSDASFHPAFLPQRQAIKGAFYRR [KCNG1],3.62 ± 0.097,3.66 ± 0.13
TSFCGQQFILERGEYPRWDAWSGS [CRYBA1],2.77 ± 0.68,2.65 ± 0.39
TSFSNYYRTWNVVVHDWLYSYVYQ [SOAT2],3.11 ± 0.27,3.01 ± 0.4

Sequence,protein stability index (treatment: DMSO),"protein stability index (treatment: MLN4924 1 uM, 8 h)"
TSGKLLLEADELCDDGGDGRGAVV [ZBTB22],5.36 ± 0.29,5.31 ± 0.1
TSIEEGYERSFIHKIKHKHILAKN [IQUB],3.14 ± 0.16,3.29 ± 0.55
TSSAKVDMTFEEEAQLLQLKVKCL [FKBP8],3.48 ± 0.28,3.54 ± 0.33
TTVGYGDMKPITVGGKIVGSLCAI [KCNA4],2.23 ± 0.47,2.4 ± 0.27
TVDKCFGRKKYDIDPRNGIPKLTP [SPATS1],3.45 ± 0.36,3.51 ± 0.23
TVGGEERVSRKPTAAMRCMCPLYD [GAN],3.3 ± 0.21,3.46 ± 0.49
TVVREVIFLGFSSLARLQQLLFVI [OR10K2],3.15 ± 0.73,2.87 ± 0.55
TWKKNRRQLAYSTVGTPDYIAPEV [STK38L],3.39 ± 0.2,3.48 ± 0.4
VAPPEDKESESEAKVDGETASDSE [CDS2],5.55 ± 0.23,5.61 ± 0.18
VAQLFNCMVGLLLIALLTWGYIRY [ATL3],3.11 ± 0.58,2.77 ± 0.42
VCTISSTGPLQPQPKKPEDEPQET [PKD2L1],5.39 ± 0.21,5.48 ± 0.16
VDRCGASVEAGGSVHFDGETIEGA [FEM1A],4.87 ± 0.24,4.92 ± 0.18
VDVQTELYLEEIADRIIEVDMECQ [RSPH3],2.75 ± 0.32,3.12 ± 0.69
VENRVVEEAKGLLDKVKDGGYRPA [ZBED1],4.82 ± 0.13,4.94 ± 0.094
VFFFIFFVQDVLFVLQAIGIPGWG [SCAMP3],3.44 ± 0.83,2.93 ± 0.71
VFITILIIALIALSVGQYNCPGQY [CD69],2.6 ± 0.38,2.61 ± 0.57
VFNLFRTMGLRHLPVVNAVGEIVG [CLCN6],2.45 ± 0.21,2.29 ± 0.18
VFRIFKLSRHSKGLQILGHTLRAS [KCNA4],2.39 ± 1,2.6 ± 0.68
VGYTALVGSDAESWGWDLGRSRLY [SPSB4],2.21 ± 0.076,2.56 ± 0.48
VHLVIWLLLVAKMSVGHLRLLSHD [JAGN1],3.39 ± 0.5,3.36 ± 0.63
VIDRKVYNISEFTRRHPGGSRVIS [FADS1],2.66 ± 0.26,3.07 ± 0.062
VKAEPFIKWLKEAEEESSGGEEED [EIF5],5.3 ± 0.28,5.4 ± 0.15
